Consider four substances from PMC4890040.

Holding throughout (test): SEC; protein alone, prior to DNA binding; Superdex 200, 20 mM Tris pH 7.5, 0.2 M NaCl, 5 mM DTT, 4 °C, 50 μL/min; peaks assigned to monomer and dimer by elution times
For assay [1], the target named is S1-Tgf2TPase (truncated Tgf2 transposase, 110-686 aa) (goldfish (Carassius auratus)).
In assay [2] the target is L-Tgf2TPase(D228N, E648Q) (goldfish (Carassius auratus)).
Assay [3] has as its target S2-Tgf2TPase (truncated Tgf2 transposase, 124-686 aa) (goldfish (Carassius auratus)).
Assay [4] deals with full length Tgf2 transposase (L-Tgf2TPase) (goldfish (Carassius auratus)).

“S1-Tgf2TPase (truncated Tgf2 transposase, 110-686 aa) (domain or fragment)”: in assay [1], the stoichiometry N came to 2.

In assay [2], L-Tgf2TPase(D228N, E648Q) (enzyme) displayed a stoichiometry N of 2. On to “S2-Tgf2TPase (truncated Tgf2 transposase, 124-686 aa) (domain or fragment)”, for which the stoichiometry N in assay [3] worked out at 2.

For the substance “full length Tgf2 transposase (L-Tgf2TPase) (enzyme)”, the stoichiometry N in assay [4] came out at 2.
